From patent publication US20260250398A1

Target: FZD/LRP
Test: cell-based or functional assay

Wnt3a, recombinantly produced ligand
TOPFLASH % Wnt Maxima: 100 % Wnt Maxima | TOPFLASH EC50: 6 nM
